In patent US20240294635A1:

Columns and labels:
[1] = molecular target: CD47 on the red cell surface (Homo sapiens (Human)) (UniProt Q08722); assay: flow cytometry on fixed red cells, antibody 1 µg/mL
[2] = molecular target: CD47 on the red cell surface (Homo sapiens (Human)) (UniProt Q08722); assay: flow cytometry on fixed red cells, antibody 10 µg/mL

IgG4 (antibody) gave an MFI [1] of 449 MFI and an MFI [2] of 484 MFI.
